Measured values taken from patent US20180051081A1 (published 2018).
Substitutions are numbered along the chain they refer to. Values belong to the binder of their own block, whether it stands above or below them.

Legend:
[1] = molecular target: T1, dog CD47 (dog, UniProt A0A8I3PM61 19-310); experiment: FACS, dog RBCs, supernatant 10 ng/ml
T1 construct: also called CD47 on dog RBCs
T1 sequence: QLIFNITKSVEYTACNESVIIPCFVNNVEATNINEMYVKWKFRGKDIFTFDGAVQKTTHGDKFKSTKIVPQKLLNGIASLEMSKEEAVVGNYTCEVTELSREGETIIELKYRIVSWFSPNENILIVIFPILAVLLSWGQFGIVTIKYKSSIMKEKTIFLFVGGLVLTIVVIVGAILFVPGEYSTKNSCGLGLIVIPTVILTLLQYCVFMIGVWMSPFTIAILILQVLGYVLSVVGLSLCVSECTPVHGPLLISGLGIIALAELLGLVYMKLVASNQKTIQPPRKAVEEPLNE
Description: (§1) RBCs are incubated for 60 minutes on ice with tissue culture supernatants containing the secreted humanized antibodies at a concentration of 10 ng/ml in a solution of phosphate buffered saline, pH 7.2, 2.5 mM EDTA (PBS+E), or with various concentrations of purified antibodies. Cells are then washed with cold PBS+E, and incubated for an additional hour on ice with FITC labeled donkey anti-human antibody (Jackson Immuno Research Labs, West Grove, Pa.; Catalogue #709-096-149) in PBS+E. Cells are then washed with PBS+E, and antibody binding is analyzed using a BD FACSAria Cell Sorter (Becton Dickinson) or a C6 Accuri Flow Cytometer (Becton Dickinson). Antibody binding is quantitated by comparison of mean fluorescence values relative to that of chimeric antibody >VxP037-01LC (SEQ ID NO:7))/>VxP037-01HC (SEQ ID NO:57). The mean fluorescence value for each antibody is divided by the mean fluorescence value for the chimeric antibody.

[2] = molecular target: T2, pig CD47 (pig, UniProt Q9GKE8 19-303); experiment: FACS, pig RBCs, supernatant 10 ng/ml
T2 construct: whole, on cells; also called CD47 on porcine RBCs
T2 sequence (looked up): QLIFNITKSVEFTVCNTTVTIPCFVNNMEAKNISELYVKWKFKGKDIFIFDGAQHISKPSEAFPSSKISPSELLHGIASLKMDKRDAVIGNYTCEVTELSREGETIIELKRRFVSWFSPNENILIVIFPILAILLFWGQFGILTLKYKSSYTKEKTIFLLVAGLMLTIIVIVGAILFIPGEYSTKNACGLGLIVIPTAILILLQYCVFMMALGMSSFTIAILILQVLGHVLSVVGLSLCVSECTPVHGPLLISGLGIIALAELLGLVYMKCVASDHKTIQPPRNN
Description: as §1

[3] = molecular target: T3, rat CD47 (rat, UniProt P97829 19-303); experiment: FACS, rat RBCs, supernatant 10 ng/ml
T3 construct: whole, on cells; also called CD47 on rat RBCs
T3 sequence (looked up): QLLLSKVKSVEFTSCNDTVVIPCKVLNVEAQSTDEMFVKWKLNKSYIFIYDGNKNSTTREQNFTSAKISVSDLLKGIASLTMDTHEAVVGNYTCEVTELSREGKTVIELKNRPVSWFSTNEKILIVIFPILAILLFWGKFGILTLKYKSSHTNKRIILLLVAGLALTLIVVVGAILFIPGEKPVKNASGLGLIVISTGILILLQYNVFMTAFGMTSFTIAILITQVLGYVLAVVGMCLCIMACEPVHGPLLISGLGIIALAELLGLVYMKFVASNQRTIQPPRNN
Description: as §1

[4] = molecular target: T4, human CD47 (human, UniProt Q08722 19-323); experiment: FACS, human RBCs, supernatant 10 ng/ml
T4 construct: whole, on cells; also called CD47 on human RBCs; CD47 on OV10 cells
T4 sequence (Q08722 19-323): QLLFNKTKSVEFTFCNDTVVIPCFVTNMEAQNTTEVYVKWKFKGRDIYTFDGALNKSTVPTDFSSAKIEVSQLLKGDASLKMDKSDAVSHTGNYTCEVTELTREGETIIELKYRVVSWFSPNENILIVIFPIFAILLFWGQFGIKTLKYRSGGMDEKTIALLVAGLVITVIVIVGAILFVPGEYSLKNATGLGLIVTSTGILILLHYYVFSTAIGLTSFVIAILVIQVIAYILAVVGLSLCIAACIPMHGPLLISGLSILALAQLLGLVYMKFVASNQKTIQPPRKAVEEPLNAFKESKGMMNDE
Description: as §1

[5] = molecular target: T5, mouse CD47 (mouse, UniProt Q61735 19-303); experiment: FACS, mouse RBCs, supernatant 10 ng/ml
T5 construct: whole, on cells; also called CD47 on mouse RBCs; CD47 on 4T1 cells
T5 sequence (looked up): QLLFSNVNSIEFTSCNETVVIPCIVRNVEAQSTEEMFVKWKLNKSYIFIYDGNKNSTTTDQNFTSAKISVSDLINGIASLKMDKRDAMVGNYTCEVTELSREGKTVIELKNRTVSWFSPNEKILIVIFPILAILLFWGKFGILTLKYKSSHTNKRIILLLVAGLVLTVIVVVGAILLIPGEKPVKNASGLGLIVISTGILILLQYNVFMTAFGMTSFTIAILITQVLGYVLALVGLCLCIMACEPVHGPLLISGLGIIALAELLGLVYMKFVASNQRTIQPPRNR
Description: as §1

B1: Clone 1 (pVxK7b-037-hum01-LC / pVxK7b-037-hum01-HC) (antibody, human IgG1, kappa)
light: DIVMTQTPLSLPVTPGEPASISCRSSQSLVHSNGNTYLHWYQQKPGKAPKLLIYKVSYRFSGVPDRFSGSGSGTDFTLKISRVEAEDVGVYYCSQNTHVPRTFGQGTKVEIKRTVAAPSVFIFPPSDEQLKSGTASVVCLLNNFYPREAKVQWKVDNALQSGNSQESVTEQDSKDSTYSLSSTLTLSKADYEKHKVYACEVTHQGLSSPVTKSFNRGEC
heavy: not shown
notes: also called Cl 1
mean fluorescence relative to chimera [1]: 1
mean fluorescence relative to chimera [2]: 1.3
mean fluorescence relative to chimera [3]: 2.7
mean fluorescence relative to chimera [4]: 1.1
mean fluorescence relative to chimera [5]: 1.7

B3: Clone 19 (pVxK7b-037-hum19-LC / pVxK7b-037-hum19-HC) (antibody, human IgG1, kappa)
light: B1 light with I2V, T7S, P15L, E17Q
heavy: not shown
mean fluorescence relative to chimera [1]: 1.2
mean fluorescence relative to chimera [2]: 1.3
mean fluorescence relative to chimera [3]: 2.6
mean fluorescence relative to chimera [4]: 0.7
mean fluorescence relative to chimera [5]: 1

B6: Clone 3 (pVxK7b-037-hum03-LC / pVxK7b-037-hum03-HC) (antibody, human IgG1, kappa)
light: B1 light with I2V, T7S, P15L, E17Q
heavy: not shown
mean fluorescence relative to chimera [1]: 0.9
mean fluorescence relative to chimera [2]: 0.9
mean fluorescence relative to chimera [3]: 1.7
mean fluorescence relative to chimera [4]: 0.7
mean fluorescence relative to chimera [5]: 0.9

B7: Clone 15 (pVxK7b-037-hum15-LC / pVxK7b-037-hum15-HC) (antibody, human IgG1, kappa, V domains shown)
VH: QVQLQESGPGLVKPSQTLSLTCTVSGYTFTNYYVFWVRQARGQRLEWIGDINPVNGDTNFNEKFKNRLTISKDTSKNQVVLTMTNMDPVDTATYYCARGGYTMDYWGQGTLVTVSS
VL: AIQLTQSPSSLSASVGDRVTITCRSSQSLVHSNGNTYLHWYQQKPGQAPRLLIYKVSYRFSGVPSRFSGSGSGTEFTLTISSLQPDDFATYYCSQNTHVPRTFGQGTKVEIKR
mean fluorescence relative to chimera [1]: 1.1
mean fluorescence relative to chimera [2]: 1.2
mean fluorescence relative to chimera [3]: 2.4
mean fluorescence relative to chimera [4]: 1
mean fluorescence relative to chimera [5]: 1.3

Results, then the binder that gave them:

mean fluorescence relative to chimera [1]: 1.1
mean fluorescence relative to chimera [2]: 1.7
mean fluorescence relative to chimera [3]: 1.9
mean fluorescence relative to chimera [4]: 1.3
mean fluorescence relative to chimera [5]: 1.5
B2: Clone 20 (pVxK7b-037-hum20-LC / pVxK7b-037-hum20-HC) (antibody, human IgG1, kappa)
light: B1 light with Q42L, K47Q, A48S, K50Q
heavy: not shown

mean fluorescence relative to chimera [1]: 1.3
mean fluorescence relative to chimera [2]: 1.4
mean fluorescence relative to chimera [3]: 3.2
mean fluorescence relative to chimera [4]: 1.1
mean fluorescence relative to chimera [5]: 1.5
B4: Clone 14 (pVxK7b-037-hum14-LC / pVxK7b-037-hum14-HC) (antibody, human IgG1, kappa)
light: B1 light with I2V, T7S, P15L, E17Q
heavy: not shown

mean fluorescence relative to chimera [1]: 1
mean fluorescence relative to chimera [2]: 1.4
mean fluorescence relative to chimera [3]: 3.1
mean fluorescence relative to chimera [4]: 1.2
mean fluorescence relative to chimera [5]: 1.3
B5: Clone 13 (pVxK7b-037-hum13-LC / pVxK7b-037-hum13-HC) (antibody, human IgG1, kappa)
light: B1 light
heavy: not shown
notes: also called Cl 13

mean fluorescence relative to chimera [1]: 1.1
mean fluorescence relative to chimera [2]: 1.1
mean fluorescence relative to chimera [3]: 2.1
mean fluorescence relative to chimera [4]: 0.9
mean fluorescence relative to chimera [5]: 1.2
B8: Clone 6 (pVxK7b-037-hum06-LC / pVxK7b-037-hum06-HC) (antibody, human IgG1, kappa, V domains shown)
VH: B7 VH
VL: B7 VL with A1D, L4M, Q42L, A48S, R50Q, V63I, S65A, P85S, D86E, T90V

mean fluorescence relative to chimera [1]: 1
mean fluorescence relative to chimera [2]: 1
mean fluorescence relative to chimera [3]: 1
mean fluorescence relative to chimera [4]: 1
mean fluorescence relative to chimera [5]: 1
B9: chimeric antibody VxP037-01LC-Pro/VxP037-01HC-Pro (antibody, human IgG1, kappa, V domains shown)
VH: EVQLQQFGAELVKPGASMKLSCKASGYTFTNYYVFWVKQRPGQGLEWIGDINPVNGDTNFNEKFKNKATLTVDKSSTTTYLQLSSLTSEDSAVYYCTRGGYTMDYWGQGTLVTVSS
VL: DVVMTQTPLSLSVSLGDQASISCRSSQSLVHSNGNTYLHWYLQKPGQSPKLLIYKVSYRFSGVPDRFSGSGSGTDFTLKISRVEAEDLGVYFCSQNTHVPRTFGQGTKVEIKR
notes: also called Chimera; VxP037-01LC/VxP037-01HC
